± gives the uncertainty stated by the source.

This series in a line: abundance fitness (aPCA) (normalised: wild type 0, dead -1); higher = more abundant; growth selection in yeast, the domain comes from the species named. The conditions noted are these: Homo sapiens.
As to “Scaffold attachment factor B1 L57G, Q15424”, the abundance fitness is -0.759 ± 0.069.

In turn, “Scaffold attachment factor B1 L57H, Q15424” had an abundance fitness of -0.842 ± 0.1.

On to “Scaffold attachment factor B1 L57I, Q15424”, for which the abundance fitness is -0.32 ± 0.077. For the substance “Scaffold attachment factor B1 L57K, Q15424”, the abundance fitness is -0.598 ± 0.088.

“Scaffold attachment factor B1 L57M, Q15424” returned an abundance fitness of -0.272 ± 0.074. On to “Scaffold attachment factor B1 L57N, Q15424”, for which the abundance fitness was -0.521 ± 0.067.

The substance “Scaffold attachment factor B1 L57P, Q15424” yielded an abundance fitness of -0.62 ± 0.074.

The substance “Scaffold attachment factor B1 L57Q, Q15424” gave an abundance fitness of -0.527 ± 0.074.

“Scaffold attachment factor B1 L57R, Q15424” displayed an abundance fitness of -0.754 ± 0.054. Turning to “Scaffold attachment factor B1 L57S, Q15424”, the abundance fitness was -0.584 ± 0.052. As for “Scaffold attachment factor B1 L57V, Q15424”, the abundance fitness was -0.417 ± 0.065. Take “Scaffold attachment factor B1 L57W, Q15424”: the abundance fitness is -1.37 ± 0.1. “Scaffold attachment factor B1 L57Y, Q15424” came in with an abundance fitness of -1.23 ± 0.095.

In turn, “Scaffold attachment factor B1 L61C, Q15424” displayed an abundance fitness of -0.41 ± 0.055. Substance “Scaffold attachment factor B1 L61D, Q15424” had an abundance fitness of -0.615 ± 0.086.

With “Scaffold attachment factor B1 L61E, Q15424”, the abundance fitness was -0.484 ± 0.06. For “Scaffold attachment factor B1 L61F, Q15424”, the abundance fitness is -0.299 ± 0.067. In the case of “Scaffold attachment factor B1 L61G, Q15424”, the abundance fitness was -0.511 ± 0.051. On to “Scaffold attachment factor B1 L61H, Q15424”, for which the abundance fitness is -0.611 ± 0.085. “Scaffold attachment factor B1 L61I, Q15424” had an abundance fitness of -0.614 ± 0.12. In the case of “Scaffold attachment factor B1 L61K, Q15424”, the abundance fitness was -0.788 ± 0.12. For the substance “Scaffold attachment factor B1 L61M, Q15424”, the abundance fitness was -0.336 ± 0.083. “Scaffold attachment factor B1 L61N, Q15424” showed an abundance fitness of -0.716 ± 0.13. The substance “Scaffold attachment factor B1 L61P, Q15424” came in with an abundance fitness of -0.583 ± 0.09.

Turning to “Scaffold attachment factor B1 L61R, Q15424”, the abundance fitness is -0.644 ± 0.057. In turn, “Scaffold attachment factor B1 L61S, Q15424” displayed an abundance fitness of -0.508 ± 0.062. “Scaffold attachment factor B1 L61T, Q15424” had an abundance fitness of -0.393 ± 0.078. On to “Scaffold attachment factor B1 L61V, Q15424”, for which the abundance fitness is -0.311 ± 0.065.

In turn, “Scaffold attachment factor B1 L61W, Q15424” came in with an abundance fitness of -0.649 ± 0.052. In turn, “Scaffold attachment factor B1 L61Y, Q15424” registered an abundance fitness of -0.351 ± 0.072. Regarding “Scaffold attachment factor B1 M58A, Q15424”, the abundance fitness is -0.224 ± 0.063. “Scaffold attachment factor B1 M58C, Q15424”: the abundance fitness is -0.289 ± 0.083. Substance “Scaffold attachment factor B1 M58D, Q15424” displayed an abundance fitness of -0.582 ± 0.078. On to “Scaffold attachment factor B1 M58F, Q15424”, for which the abundance fitness was -0.204 ± 0.075. Take “Scaffold attachment factor B1 M58G, Q15424”: the abundance fitness is -0.368 ± 0.056. As for “Scaffold attachment factor B1 M58H, Q15424”, the figure is -0.344 ± 0.079; as for “Scaffold attachment factor B1 M58I, Q15424”, -0.151 ± 0.071; as for “Scaffold attachment factor B1 M58K, Q15424”, -0.253 ± 0.086. The figure for “Scaffold attachment factor B1 M58L, Q15424” is -0.106 ± 0.058; for “Scaffold attachment factor B1 M58N, Q15424” it is -0.37 ± 0.097; for “Scaffold attachment factor B1 M58P, Q15424” it is -0.598 ± 0.1. “Scaffold attachment factor B1 M58R, Q15424” came in with an abundance fitness of -0.205 ± 0.059. “Scaffold attachment factor B1 M58S, Q15424” came in with an abundance fitness of -0.16 ± 0.064. In turn, “Scaffold attachment factor B1 M58V, Q15424” showed an abundance fitness of -0.114 ± 0.064.

Substance “Scaffold attachment factor B1 M58W, Q15424” displayed an abundance fitness of -0.439 ± 0.069. For “Scaffold attachment factor B1 M58Y, Q15424”, the abundance fitness is -0.341 ± 0.079. “Scaffold attachment factor B1 N47A, Q15424” returned an abundance fitness of -0.236 ± 0.056. With “Scaffold attachment factor B1 N47C, Q15424”, the abundance fitness is -0.274 ± 0.073. Substance “Scaffold attachment factor B1 N47D, Q15424” registered an abundance fitness of -0.167 ± 0.085. Substance “Scaffold attachment factor B1 N47E, Q15424” showed an abundance fitness of -0.168 ± 0.074.

In the case of “Scaffold attachment factor B1 N47H, Q15424”, the abundance fitness is -0.349 ± 0.076. “Scaffold attachment factor B1 N47I, Q15424”: the abundance fitness was -0.822 ± 0.09. On to “Scaffold attachment factor B1 N47K, Q15424”, for which the abundance fitness was -0.349 ± 0.1. For “Scaffold attachment factor B1 N47L, Q15424”, the abundance fitness is -0.365 ± 0.061. As for “Scaffold attachment factor B1 N47M, Q15424”, the figure is -0.224 ± 0.073; as for “Scaffold attachment factor B1 N47P, Q15424”, -1.01 ± 0.11. “Scaffold attachment factor B1 N47Q, Q15424” returned an abundance fitness of -0.227 ± 0.067.

“Scaffold attachment factor B1 N47R, Q15424” gave an abundance fitness of -0.207 ± 0.065. As for “Scaffold attachment factor B1 N47S, Q15424”, the figure is -0.236 ± 0.07; as for “Scaffold attachment factor B1 N47T, Q15424”, -0.331 ± 0.066. “Scaffold attachment factor B1 N47V, Q15424” returned an abundance fitness of -0.448 ± 0.056.

Turning to “Scaffold attachment factor B1 N47W, Q15424”, the abundance fitness was -0.593 ± 0.079. For the substance “Scaffold attachment factor B1 N47Y, Q15424”, the abundance fitness is -0.483 ± 0.088. As for “Scaffold attachment factor B1 N53A, Q15424”, the figure is -0.175 ± 0.056; as for “Scaffold attachment factor B1 N53C, Q15424”, -0.138 ± 0.083.

As for “Scaffold attachment factor B1 N53D, Q15424”, the abundance fitness is -0.038 ± 0.068.

As to “Scaffold attachment factor B1 N53E, Q15424”, the abundance fitness is -0.198 ± 0.087.

In the case of “Scaffold attachment factor B1 N53F, Q15424”, the abundance fitness was -0.354 ± 0.048.

As to “Scaffold attachment factor B1 N53G, Q15424”, the abundance fitness was -0.08 ± 0.057. The substance “Scaffold attachment factor B1 N53H, Q15424” came in with an abundance fitness of -0.127 ± 0.071.

As to “Scaffold attachment factor B1 N53I, Q15424”, the abundance fitness is -0.27 ± 0.084. As for “Scaffold attachment factor B1 N53M, Q15424”, the figure is -0.376 ± 0.063; as for “Scaffold attachment factor B1 N53P, Q15424”, -0.284 ± 0.06. Substance “Scaffold attachment factor B1 N53Q, Q15424” displayed an abundance fitness of -0.288 ± 0.089. In turn, “Scaffold attachment factor B1 N53R, Q15424” yielded an abundance fitness of -0.067 ± 0.049. Turning to “Scaffold attachment factor B1 N53S, Q15424”, the abundance fitness is -0.085 ± 0.051. The substance “Scaffold attachment factor B1 N53V, Q15424” yielded an abundance fitness of -0.158 ± 0.056.

As to “Scaffold attachment factor B1 N53W, Q15424”, the abundance fitness is -0.712 ± 0.059. In the case of “Scaffold attachment factor B1 N71A, Q15424”, the abundance fitness was -0.329 ± 0.071.

For the substance “Scaffold attachment factor B1 N71C, Q15424”, the abundance fitness is -0.207 ± 0.07. In turn, “Scaffold attachment factor B1 N71D, Q15424” showed an abundance fitness of -0.247 ± 0.1. “Scaffold attachment factor B1 N71E, Q15424” had an abundance fitness of -0.36 ± 0.072. As for “Scaffold attachment factor B1 N71F, Q15424”, the figure is -0.338 ± 0.068; as for “Scaffold attachment factor B1 N71H, Q15424”, -0.309 ± 0.1. As for “Scaffold attachment factor B1 N71I, Q15424”, the abundance fitness is -0.468 ± 0.1. Turning to “Scaffold attachment factor B1 N71K, Q15424”, the abundance fitness was -0.253 ± 0.073. As for “Scaffold attachment factor B1 N71L, Q15424”, the figure is -0.299 ± 0.062; as for “Scaffold attachment factor B1 N71M, Q15424”, -0.3 ± 0.057; as for “Scaffold attachment factor B1 N71P, Q15424”, -0.365 ± 0.076. The substance “Scaffold attachment factor B1 N71Q, Q15424” showed an abundance fitness of -0.263 ± 0.095.

Turning to “Scaffold attachment factor B1 N71S, Q15424”, the abundance fitness was -0.19 ± 0.063. As for “Scaffold attachment factor B1 N71T, Q15424”, the figure is -0.267 ± 0.092; as for “Scaffold attachment factor B1 N71V, Q15424”, -0.211 ± 0.055. The substance “Scaffold attachment factor B1 N71W, Q15424” showed an abundance fitness of -0.39 ± 0.057. As for “Scaffold attachment factor B1 N71Y, Q15424”, the abundance fitness is -0.448 ± 0.094. As for “Scaffold attachment factor B1 P72A, Q15424”, the abundance fitness was -0.187 ± 0.07.
